Results from patent US7125658B2, “Small protein that interacts with a ribonucleotide reductase subunit and uses thereof” (The Trustees of Columbia University in the City of New York, priority 1998, dated 2006).

B1: GBD-Rnr2 two-hybrid fusion (plasmid pWJ729) (other, UniProt P04386 1-147, looked up)
chain: MKLLSSIEQACDICRLKKLKCSKEKPKCAKCLKNNWECRYSPKTKRSPLTRAHLTEVESRLERLEQLFLLIFPREDLDMILKMDSLQDIKALLTGLFVQDNVNKDAVTDRLASVETDMPLTLRQHRISATSSSEESSNKGQRQLTVSMPKETPSKAAADALSDLEIKDSKSNLNKELETLREENRVKSDMLKEKLSKDAENHKAYLKSHQVHRHKLKEMEKEEPLLNEDKERTVLFPIKYHEIWQAYKRAEASFWTAEEIDLSKDIHDWNNRMNENERFFISRVLAFFAASDGIVNENLVENFSTEVQIPEAKSFYGFQIMIENIHSETYSLLIDTYIKDPKESEFLFNAIHTIPEIGEKAEWALRWIQDADALFGERLVAFASIEGVFFSGSFASIFWLKKRGMMPGLTFSNELICRDEGLHTDFACLLFAHLKNKPDPAIVEKIVTEAVEIEQRYFLDALPVALLGMNADLMNQYVEFVADRLLVAFGNKKYYKVENPFDFMENISLAGKTNFFEKRVSDYQKAGVMSKSTKQEAGAFTFNEDF
B2: GAD-Sml1 two-hybrid fusion (plasmid pWJ684, pACTII) (other, not shown: large carriers)
chain: MQNSQDYFYAQNRCQQQQAPSTLRTVTMAEFRRVPLPPMAEVPMLSTQNSMGSSASASASSLEMWEKDLEERLNSIDHDMNNNKFGSGELKSMFNQGKVEEMDF

How the values were obtained:
[1] = molecular target: B2; test: cell-based or functional assay
[2] = molecular target: T1, GAD-Rnr1 two-hybrid fusion (plasmid pWJ745) (yeast (Saccharomyces cerevisiae), UniProt P21524 1-888); test: cell-based or functional assay
T1 sequence (looked up): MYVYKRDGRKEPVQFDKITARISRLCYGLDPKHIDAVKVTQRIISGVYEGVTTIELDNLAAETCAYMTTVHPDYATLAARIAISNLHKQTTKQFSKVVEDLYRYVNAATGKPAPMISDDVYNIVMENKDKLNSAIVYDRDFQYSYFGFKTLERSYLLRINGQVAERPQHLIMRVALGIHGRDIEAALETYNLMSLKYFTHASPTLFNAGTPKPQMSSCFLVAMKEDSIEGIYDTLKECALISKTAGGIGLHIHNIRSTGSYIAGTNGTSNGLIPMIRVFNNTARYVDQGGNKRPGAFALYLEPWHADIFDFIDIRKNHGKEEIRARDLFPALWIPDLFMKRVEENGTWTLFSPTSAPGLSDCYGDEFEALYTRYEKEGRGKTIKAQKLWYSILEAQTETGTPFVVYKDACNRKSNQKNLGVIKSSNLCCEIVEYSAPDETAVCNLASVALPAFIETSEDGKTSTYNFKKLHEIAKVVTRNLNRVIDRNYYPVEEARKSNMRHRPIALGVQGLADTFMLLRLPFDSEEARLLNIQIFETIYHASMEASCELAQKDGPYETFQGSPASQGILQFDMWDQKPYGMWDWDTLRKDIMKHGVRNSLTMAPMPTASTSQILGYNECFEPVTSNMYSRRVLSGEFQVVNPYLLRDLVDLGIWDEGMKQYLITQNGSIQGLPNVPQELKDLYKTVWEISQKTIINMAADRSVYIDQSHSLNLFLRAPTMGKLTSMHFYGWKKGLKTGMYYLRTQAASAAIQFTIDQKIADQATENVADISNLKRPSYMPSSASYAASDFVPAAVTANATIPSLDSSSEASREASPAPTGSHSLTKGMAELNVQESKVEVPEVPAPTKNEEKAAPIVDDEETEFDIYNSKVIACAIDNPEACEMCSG

[3] = molecular target: T2, GAD (Gal4 activation domain alone, empty vector control) (UniProt P04386 768-881); test: cell-based or functional assay
T2 sequence (looked up): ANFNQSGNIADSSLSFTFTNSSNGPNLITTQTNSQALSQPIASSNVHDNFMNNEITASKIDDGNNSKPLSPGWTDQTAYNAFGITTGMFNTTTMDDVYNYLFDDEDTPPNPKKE

[4] = molecular target: T3, GAD-Rnr2 two-hybrid fusion (plasmid pWJ746) (yeast (Saccharomyces cerevisiae), UniProt P09938 1-399); test: yeast two-hybrid, GBD-Sml1 with GAD-Rnr2
T3 construct: Whole RNR2 ORF as cloned
T3 sequence (looked up): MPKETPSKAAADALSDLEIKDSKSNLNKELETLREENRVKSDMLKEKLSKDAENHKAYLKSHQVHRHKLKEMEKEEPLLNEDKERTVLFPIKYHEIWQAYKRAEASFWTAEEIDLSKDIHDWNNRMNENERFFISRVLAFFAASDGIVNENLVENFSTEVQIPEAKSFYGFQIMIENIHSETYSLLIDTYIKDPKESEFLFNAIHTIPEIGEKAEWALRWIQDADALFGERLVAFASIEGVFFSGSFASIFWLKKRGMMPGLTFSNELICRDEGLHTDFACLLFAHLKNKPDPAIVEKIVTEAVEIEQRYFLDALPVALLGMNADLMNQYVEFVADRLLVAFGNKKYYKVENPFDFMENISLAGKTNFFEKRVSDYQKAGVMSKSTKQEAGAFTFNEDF
Description: (§1) We next tested the possibility that Sml1 interacts with the subunit(s) of RNR since such interactions may provide a regulatory mechanism to inhibit RNR activity. […] In addition, Rnr1 and Rnr2 each interacts with itself, however these interactions are much weaker than the interaction between Sml1 and Rnr1 (Table 2).
(§2) The strains and plasmids for two-hybrid analysis were PJ69-4A, pGBD-C2, pGAD-C2 (James et al., 1996) and pACTII (CLONTECH® Inc.). The primer pair pB-SML1 5' (SEQ ID NO: 11) and pGBD-SML1 3' (SEQ ID NO: 13) (Table 4) was used to amplify the SML1 ORF. After digestion with BamHI and PstI, this PCR product was cloned into the BamHI-PstI sites of pGBD-C2 to construct plasmid pWJ728. Similarly, plasmid pWJ684 contains a BamHI fragment from the PCR product of the SML1 ORF generated using the primer pair pB-SML1 5' and pB-SML1 3' (SEQ ID NO: 12) (Table 4) and inserted at the BamHI site of pACTII. PCR fragments containing the RNR1 or the RNR2 ORF were generated by primer pairs RNR1-ORF 5' (SEQ ID NO: 14) and RNR1 3' (SEQ ID NO: 15) or RNR2-ORF 5' (SEQ ID NO: 17) and RNR2 3' (SEQ ID NO: 16) (Table 4). These fragments were cloned into the BamHI-PstI site of pGBD-C2 and pGAD-C2 to construct pWJ731 and pWJ745 or pWJ729 and pWJ746 respectively.
(§3) The GAL1-HIS3 reporter was assayed on SC-HIS-LEU-TRP medium plus 1-2 mM 3-aminotriazole. […]

[5] = molecular target: T3, GAD-Rnr2 two-hybrid fusion (plasmid …); test: cell-based or functional assay
[6] = molecular target: B1; test: yeast two-hybrid, GAD-Sml1 with GBD-Rnr2
Description: as §1, §2, §3

| Binder | two-hybrid LacZ activity [1] [Miller Units] | two-hybrid LacZ activity [2] [Miller Units] | two-hybrid LacZ activity [3] [Miller Units] | binding result [4] | two-hybrid LacZ activity [5] [Miller Units] | binding result [6] |
| --- | --- | --- | --- | --- | --- | --- |
| GBD-Sml1 two-hybrid fusion (plasmid pWJ728) (other, also called GBD fusion SML1) MKLLSSIEQACDICRLKKLKCSKEKPKCAKCLKNNWECRYSPKTKRSPLTRAHLTEVESRLERLEQLFLLIFPREDLDMILKMDSLQDIKALLTGLFVQDNVNKDAVTDRLASVETDMPLTLRQHRISATSSSEESSNKGQRQLTVSMQNSQDYFYAQNRCQQQQAPSTLRTVTMAEFRRVPLPPMAEVPMLSTQNSMGSSASASASSLEMWEKDLEERLNSIDHDMNNNKFGSGELKSMFNQGKVEEMDF | 3.3 | 31 | 4 | no binding |  |  |
| B1 | 0.9 |  | 1.4 |  | 2.3 |  |
| B2 |  |  |  |  |  | no binding |
